Data: article doi:10.1101/2025.08.13.670108v1

Key:
O=C(O)/C=C/c1c[nH]cn1 = assay: purified protein; conditions: pH 8.0; 25.0 °C
[1] = system: C[N+](C)(C)[C@@H](Cc1cnc[nH]1)C(=O)[O-]; assay: purified protein; assay type: biochemical, Shewanella woodyi; conditions: pH 8.5

Row | Substance | Km (O=C(O)/C=C/c1c[nH]cn1) [µM] | Km [1] [µM]
1 | Swoo_3912 (Shewanella woodyi ATCC 51908) | 0.7 ± 0.1 | 
2 | Swoo_3913 (Shewanella woodyi ATCC 51908) |  | 103 ± 8
